In publication PMC5789003, “Structural and functional characterization of shaft, anchor, and tip proteins of the Mfa1 fimbria from the periodontal pathogen Porphyromonas gingivalis” (Scientific Reports, 2018):
Numbering of substitutions follows the chain as printed. Values joined by “and” are separate entries in the source; they are usually repeats but may differ in a detail not shown here. Identical values can stand only once.

B1: Mfa2 (anchor protein of the Mfa1 fimbria), wild type, in P. gingivalis (natural protein)
chain: CDKMIYDNYDDCPRGVYVNFYSQTECAENPSYPAEVARLNVYAFDKDGILRSANVFEDVQLSAAKEWLIPLEKDGLYTIFAWGNIDDHYNIGEIKIGETTKQQVLMRLKQDGKWATNIDGTTLWYATSPVVELKNMEDGADQYIHTRANLREYTNRVTVSVDSLPHPENYEIKLASSNGSYRFDGTVAKADSTYYPGETKVVGDSTCRAFFTTLKLESGHENTLSVTHKPTGREIFRTDLVGAILSSQYAQNINLRCINDFDIRLVAHHCNCPDDTYVVVQIWINGWLIHSYEIEL
modifications: lipidated cysteine (Cys29); disulphide bonds Cys54-Cys285 and Cys298-Cys300
B2: Mfa2 C54A (natural protein)
chain: B1 chain with C26A
notes: source: P. gingivalis Δmfa2Δfim complemented with mfa2C54A, whole cell lysate
B3: Mfa2 C285A (natural protein)
chain: B1 chain with C257A
notes: source: P. gingivalis Δmfa2Δfim complemented with mfa2C285A, whole cell lysate

Target: the molecule itself
Experiment: SDS-PAGE and immunoblot of partially heat-denatured fimbriae (ladder-like pattern)

| Protein | stoichiometry N |
| --- | --- |
| B1 | 2 and 3 |
| B2 | 2 and 3 |
| B3 | 3 and 2 |
